In test [1] the target is T1, human PD-1 expressed on cells (human, UniProt Q15116 25-288).
T1 construct: whole, on cells; also called hPD-1; PDCD1
Nature of the test: Retrogenix cell microarray, HEK293 cells.

For test [2], the target named is T2, hPD-1 Avi-Tag Biotin (AcroBiosystems, PD1-H82E4) (human, UniProt Q15116 25-167, biotin on Avi-Tag).
T2 construct: bought; also called recombinant hPD-1
In words: IgG format; ELISA / SPR. On the technique in general: An ELISA detects its analyte on a solid surface through an enzyme-linked reagent.

The source of these data is EP4431525A1 (Anaveon AG, dated 2024).

T1 sequence (Q15116 25-288): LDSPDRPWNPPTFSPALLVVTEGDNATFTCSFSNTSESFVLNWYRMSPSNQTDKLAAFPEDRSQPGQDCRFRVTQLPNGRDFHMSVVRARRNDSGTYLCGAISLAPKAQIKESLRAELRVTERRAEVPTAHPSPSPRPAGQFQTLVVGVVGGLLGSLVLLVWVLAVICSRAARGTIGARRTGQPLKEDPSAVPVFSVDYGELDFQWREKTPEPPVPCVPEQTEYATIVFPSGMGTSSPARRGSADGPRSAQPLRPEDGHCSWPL
T2 sequence (Q15116 25-167 limits assumed): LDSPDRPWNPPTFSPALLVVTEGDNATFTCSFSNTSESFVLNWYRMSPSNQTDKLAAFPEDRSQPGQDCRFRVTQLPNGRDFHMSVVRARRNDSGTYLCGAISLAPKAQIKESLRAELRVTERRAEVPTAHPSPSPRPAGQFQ

B1: z2-XVT458-m1 (antibody, V domains shown)
VH: QVQLVQSGAEVKKPGASVKVSCKASGYTFTNFYIHWVRQAPGQGLEWMGSIYPNYGFTAYNQKFKDRVTMTVDTSTSTAYMELRSLRSDDTAVYYCARGYSYAMDYWGQGTTVTVSS
VL: DIQMTQSPSSVSASVGDRVTITCSASQGIWGDLNWYQQKPGKAPKLLIYHTSQLHSDVPSRFSGSGSGTDFTLTISSLQPEDFATYYCQGYSKDLLTFGGGTKLEIK
notes: IgG format; also called XVT458-z2-m1; XVT458-z2-ml
Take B1: the binding result in test [1] and in test [2] was “binds” in each case.

B2: z2-XVT458-m6 (antibody, V domains shown)
VH: QVQLVQSGAEVKKPGASVKVSCKASGYTFTNFYIHWVRQAPGQGLEWMGSIYPNYGITAYNQKFKDRVTMTVDTSTSTAYMELRSLRSDDTAVYYCARGYSYAMDYWGQGTTVTVSS
VL: DIQMTQSPSSVSASVGDRVTITCSASQGISGDLNWYQQKPGKAPKLLIYHTSQLHSDVPSRFSGSGSGTDFTLTISSLQPEDFATYYCQGYSKDLLTFGGGTKLEIK
notes: IgG format; also called XVT458-z2-m6; XVT458-Z2-m6
Regarding B2, the binding result in test [1] and in test [2] was “binds” throughout.

B3: z2-XVT458-m3 (antibody, V domains shown)
VH: QVQLVQSGAEVKKPGASVKVSCKASGYTFTNFYIHWVRQAPGQGLEWMGRIYPNYGITAYNQKFKDRVTMTVDTSTSTAYMELRSLRSDDTAVYYCARGYSYAMDYWGQGTTVTVSS
VL: DIQMTQSPSSVSASVGDRVTITCSASQGISGDLNWYQQKPGKAPKLLIYHTSQRHSDVPSRFSGSGSGTDFTLTISSLQPEDFATYYCQGYSKDLLTFGGGTKLEIK
notes: IgG format; also called XVT458-z2-m3; XVT458-Z2-M3
For B3, the binding result in test [1] and in test [2] was “binds” throughout.
